The assay deals with biotin-15d-PGJ2. Put plainly: biotin pull-down (avidin) with western-blot quantification (ImageJ). Conditions: 293T cells transfected with FLAG-eIF4A1s.
As to FLAG-eIF4A1 (from UniProt P60842) C264S, the ratio to parent stood at 0.17.
Take “FLAG-eIF4A1 (from UniProt P60842) C264S; R295A”: the ratio to parent is 0.03.
In the case of FLAG-eIF4A1 (from UniProt P60842) R295A, the ratio to parent was 2.35.

The record behind these values is PMC6262856.
